Assay results taken from publication doi:10.1101/2024.06.17.599268 (bioRxiv, 2024).

Key:
Assay in all cases: SEC
[1] = molecular target: T1, Rab8a_(1-176) (human, UniProt P61006 1-176)
T1 sequence: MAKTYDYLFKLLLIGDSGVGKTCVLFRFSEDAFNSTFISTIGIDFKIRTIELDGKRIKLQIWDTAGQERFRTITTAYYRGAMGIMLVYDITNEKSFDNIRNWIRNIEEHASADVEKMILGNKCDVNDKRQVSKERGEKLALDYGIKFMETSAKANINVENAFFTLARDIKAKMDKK

[2] = molecular target: T2, Rab15_(1-176) (human, UniProt P59190 1-176)
T2 sequence: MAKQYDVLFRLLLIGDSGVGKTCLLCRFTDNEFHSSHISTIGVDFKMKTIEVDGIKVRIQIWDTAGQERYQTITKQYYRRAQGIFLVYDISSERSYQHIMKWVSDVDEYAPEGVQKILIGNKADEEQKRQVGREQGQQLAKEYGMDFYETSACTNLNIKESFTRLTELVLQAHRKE

[3] = molecular target: T3, Rab10_(1-175) (human, UniProt P61026 1-175)
T3 sequence: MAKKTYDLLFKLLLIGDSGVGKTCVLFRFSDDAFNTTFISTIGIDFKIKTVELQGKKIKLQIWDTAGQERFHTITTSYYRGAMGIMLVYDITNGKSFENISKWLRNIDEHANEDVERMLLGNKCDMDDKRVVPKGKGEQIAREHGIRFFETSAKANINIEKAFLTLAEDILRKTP

Measured: binding result

B1: Mical1 bMERB domain (residues 918-1067) (domain or fragment)
chain: KEEEMKRFCKAQTIQRRLNEIEAALRELEAEGVKLELALRRQSSSPEQQKKLWVGQLLQLVDKKNSLVAEEAELMITVQELNLEEKQWQLDQELRGYMNREENLKTAADRQAEDQVLRKLVDLVNQRDALIRFQEERRLSELALGTGAQG
binds: [1] | [2] | [3]
